Data taken from the supplement of paper PMC9170038.

System: MS2 coat protein
Experiment: apparent KD of MS2 coat protein; designed switch direction (-1 OFF switch, 1 ON switch): -1; higher = weaker reporter binding
Procedure, shortened: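 Three titration conditions were used: no input, 200 uM small-molecule ligand, and an oligonucleotide input. In each, SNAP-549-labelled MS2 coat protein was raised from 0.7 or 1.5 nM, doubling, to 3 µM over designed RNA switches transcribed on Illumina chips by stalled E. coli RNA polymerase. Curve fits of normalised cluster fluorescence gave values whose per-design median over clusters is the apparent KD.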

[1] = Eterna round: R95, input ligand: microRNA oligo, concentration not stated
[2] = Eterna round: R95, input ligand: FMN 200 uM
[3] = Eterna round: R95, input ligand: none
[4] = input ligand: microRNA oligo, concentration not stated

Sequence | apparent KD of MS2 coat protein [1] [nM] | apparent KD of MS2 coat protein (input ligand: FMN 200 uM) [nM] | apparent KD of MS2 coat protein (input ligand: none) [nM] | other results
CCGCAAAAUGAGGAUAUCGUAUCGGAUACGAUACGAGAAGGCGUAACAUGAGGAUCACCCAUGUGUCCUAGCGG [Fiskers Ex 6 - 35] (puzzle: Exclusion 6) | 13.5 |  |  | 
CCGCAACAUGAGGAUCACCCAUGUCAGGAUAUCGUACGUUCGUCGAUAGACGAUCGUACGAGAAGGGUGUGCGG [Mat - Exclusion 1 - Eli Mod - D35] (Eterna round: R97, puzzle: Exclusion 1) |  | 81.5 | 103 | 
CCGCAUAAGCAGGAUAUCGUAUCGGAAACGAUACGAGAAGGGUUUACAUGAGGAUCACCCAUGUUCCUUAGCGG [Mat - Exclusion 6 - Eli Mod - D100] (puzzle: Exclusion 6) | 31.5 |  |  | apparent KD of MS2 coat protein [2]: 49.9 nM; apparent KD of MS2 coat protein [3]: 32.6 nM
CCGGAAAUACAGGAUAUAGGAGUCGAUAGACUCCUAGAAGGGUAUACAUGAGGAUCACCCAUGUUCCUUACCGG [Fiskers Ex 6 - 72] (puzzle: Exclusion 6) | 36.9 |  |  | 
CCGGAAAUACAGGAUAUCGUAUCGGAUACGAUACGAGAAGGGUAUACAUGAGGAUCACCCAUGUGUCCUACCGG [Fiskers Ex 6 - 51] (Eterna round: R96, puzzle: Exclusion 6) |  | 30.1 | 26.3 | apparent KD of MS2 coat protein [4]: 20.2 nM
CCGGAAAUACAGGAUAUCGUAUCGGAUACGAUACGAGAAGGGUAUACAUGAGGAUCACCCAUGUGUCCUACCGG [Fiskers Ex 6 - 51] (puzzle: Exclusion 6) | 23.6 |  |  | 
CCGGAAUAACAGGAUAUAGGAGUCGAUAGACACCUAGAAGGGUUGACAUGAGGAUCACCCAUGUGUCCUACCGG [Fiskers Ex 6 - 81] (puzzle: Exclusion 6) | 728 |  |  | apparent KD of MS2 coat protein [2]: 756 nM; apparent KD of MS2 coat protein [3]: 595 nM
CCGGGUCACGUAAGGAUAUCACGCGCAGACGCUAGUGAGAAGGUACAUGAGGAUCACCCAUGUUCCAUUCGCAG [BmEX4 C.5] (Eterna round: R97, puzzle: Brourd's mod of Exclusion 4) |  | 17.1 | 13.8 | 
CCGGUUGGCGCAGGAUAUACAUGAGGAUCACCCAUGUUCAUGAGGAUCACCCAUGAGUUUUUGUUGUAGAAGGGUGGCCCGGCC [A second MS2 with the first and last base exchanged (less A)] (Eterna round: R96, puzzle: Exclusion NG 2) |  | 23.8 | 29.4 | apparent KD of MS2 coat protein [4]: 15 nM
CCGUUGGUAGGAUAUCCAACGAUAUACUUGAGGAUCACCCAAGUCCGUAGGGCGUUCGAAGGAGAAGGGCUGAUGG [Zaisaat] (Eterna round: R97, puzzle: Exclusion 5) |  | 120 | 108 | 
CCUACUCCCGUUAGGAUAUGUGGAGGCGUACCUCCGUAGAAGGAACAUGAGGAUCACCCAUGUCGCUGUCAUGC [Eternabot (L2) Solution 90] (Eterna round: R97, puzzle: Brourd's mod of Exclusion 4) |  | 18.4 | 19.9 | 
CCUAGACAUGAGGAUCACCCAUGUGAGGAUAUGAUGCGAUCGUCGAAAGACGAUAGCAUCAGAAGGCACAUAUG [Fiskers Ex 1 - 5] (Eterna round: R96, puzzle: Exclusion 1) |  | 130 | 37.6 | apparent KD of MS2 coat protein [4]: 34.2 nM
CCUAGACAUGAGGAUCACCCAUGUGAGGAUAUGAUGCGAUCGUCGAAAGACGAUAGCAUCAGAAGGCACAUAUG [Fiskers Ex 1 - 5] (puzzle: Exclusion 1) | 36.9 |  |  | 
CCUAUGUGAGGAUAUCACUGGUCUUCUCACUGGAUGAUUAGUGAGAAGGCACAUGAGGAUCACCCAUGUCGGUG [Ex4 - 3 - 51] (Eterna round: R96, puzzle: Exclusion 4) |  | 633 |  | apparent KD of MS2 coat protein [4]: 482 nM
CCUAUGUGAGGAUAUCACUGGUCUUCUCACUGGAUGAUUAGUGAGAAGGCACAUGAGGAUCACCCAUGUCGGUG [Ex4 - 3 - 51] (puzzle: Exclusion 4) | 524 |  |  | 
CCUCAGGCGGAGGAUAUCUAACAACAAUAACAAAGAGAAGGCCGCACAUGAGGAUCACCCAUGUGUAUGGGCCG [Bitierre] (puzzle: Exclusion 6) | 13.1 |  |  | 
CCUCAGUAAGGAUAUCAGCUUAUAAAGUUGGUAAUGAGAGCUGAGAAGGUACAUGAGGAUCACCCAUGUUAGUU [JL Zatite mod 5] (puzzle: Exclusion 4) | 20.9 |  |  | 
CCUCGACAUGAGGAUCACCCAUGUCAGGAUAUUGUGUUUCGGGUUUUUUACCUUUAGGCAAGAAGGGAUGUGUG [LRO-Excl1-16] (puzzle: Exclusion 1) | 15.8 |  |  | 

Sequence | apparent KD of MS2 coat protein [1] [nM] | apparent KD of MS2 coat protein (input ligand: FMN 200 uM) [nM] | apparent KD of MS2 coat protein (input ligand: none) [nM] | other results
CCUCGUAGGGAGGAUAUCCUUUAAAUUUAAGGAGGAGAAGGCUCAACAUGAGGAUCACCCAUGUAAAAUUUAAA [-17, -14.8 kcal, A 36%] (Eterna round: R97, puzzle: Exclusion 6) |  | 109 | 78.7 | 
CCUCUACAUGAGGAUCACCCAUGUGAGGAUAUCUCGGAGCAGCCACUUAAGGCACUCCAGAGAAGGCACGUGUA [Oreresbe] (puzzle: Exclusion 1) | 16.6 |  |  | 
CCUCUGGUAGGAUAUACUGGUGGCGGCAUUAUCGUGAAGGUACAUGAGGAUCACCCAUGUAGAAGGGCUCAAGU [Eternabot (L2) Solution 83] (Eterna round: R97, puzzle: Exclusion 2) |  | 38.3 | 37.1 | 
CCUUAGUUAGGAUAUCGGAUUGUUCACGGUGCUCACCGGGUCGAGAAGGAACAUGAGGAUCACCCAUGUCACGA [Eternabot (L1) Solution 72] (Eterna round: R97, puzzle: Exclusion 4) |  | 60.1 | 42.5 | 
CCUUGUCUGAAGGAUAUCCGCCUAAAAGGCAAGGGAGAAGGUUAGACAUGAGGAUCACCCAUGUGCCGGUGUAA [EX6 A.26] (Eterna round: R97, puzzle: Exclusion 6) |  | 21.7 | 25.1 | 
CGACCCAUCAUAGGAUAUCACAGCACGGGAGAAAGUCUGAGGCGUCAACAUGAGGAUCACCCAUGUGAGAAGGAUGGUGGGCAG [Eternabot solution 17] (Eterna round: R96, puzzle: Exclusion NG 2) |  | 120 | 162 | apparent KD of MS2 coat protein [4]: 184 nM
CGACGACAUGAGGAUCACCCAUGUCAGGAUAUGGAAAACCAGAAUAUAUUUUAACUUUCCAGAAGGGACAGGUC [Eternabot (Original) Solution 1] (Eterna round: R97, puzzle: Exclusion 1) |  | 19.6 | 18.1 | 
CGAGAGCGAGGAUAUACACAACUCCUCACUGUCAAGAAAGGACAUGAGGAUCACCCAUGUAGAAGGUGCAAAAC [Quries] (puzzle: Exclusion 2) | 125 |  |  | apparent KD of MS2 coat protein [2]: 215 nM; apparent KD of MS2 coat protein [3]: 120 nM
CGAUAAUCCUAGGAUAUGCUAGACGAAAGUCUAGCAGAAGGAGGAACAUGAGGAUCACCCAUGUGUCCUAAUCG [Mat - Exclusion 6 - Eli Mod - D17] (Eterna round: R97, puzzle: Exclusion 6) |  | 30.9 | 15.3 | 
CGAUAGAUAGGAUAUACAUGAGGAUCACCCAUGUGAACGGGUAGAUUUGUCAACUGAAGUAGAAGGAUCGUCGC [Eternabot (L2) Solution 64] (Eterna round: R97, puzzle: Exclusion 3) |  | 132 | 761 | 
CGAUCCGUAGAGGAUAUAGGACGUCAUAGCGAUUUAGAAGGCUACACAUGAGGAUCACCCAUGUACAUUUCAUA [Eternabot (L1) Solution 60] (Eterna round: R97, puzzle: Exclusion 6) |  | 18.9 | 18.1 | 
CGAUGAGGAGUGAGGAUAUCGUGUUCGAAAGAACGUGAGAAGGCACAUGAGGAUCACCCAUGUGAUCCUCAUGG [Omei Ex4B A23] (Eterna round: R97, puzzle: Brourd's mod of Exclusion 4) |  | 1030 | 164 | 
CGAUGAGGUGUGAGGAUAUCGUGUUCGAAAGAACGUGAGAAGGCACAUGAGGAUCACCCAUGUUAACCUUGUCG [Omei Ex4B A13] (Eterna round: R97, puzzle: Brourd's mod of Exclusion 4) |  | 11.5 | 13.2 | 
CGAUGCUCGUGUCCACAUGAGGAUCACCCAUGUCGAGUUAGCGAGGAUAUCGGUAACACAUAGUACGAGAAGGCGCGAACCUGA [Ex NG3 #27] (Eterna round: R96, puzzle: Exclusion NG 3) |  | 52.5 | 17.3 | apparent KD of MS2 coat protein [4]: 14.6 nM
CGAUGUUAUGUCAGGAUAUGCGUUGCGAAAGCGAUGCAGAAGGGACAUGAGGAUCACCCAUGUCCUAACCAUCG [Omei A 7] (puzzle: Brourd's mod of Exclusion 4) | 10.7 |  |  | 
CGCACCACAUGAGGAUCAAACAUGAGGAUCACCCAUGUAUAACAAGCUUUUUGCUCGUCUUAUAAAUAUGUGGUGCG [Electric Eye 3 - Jieux - Sensor, turn-off variant 1] (Eterna round: R97, puzzle: Sensor, turn-off variant 1) |  | 13.9 | 14.2 | 
CGCAUGUGAGGAUAUGUACUAGUUGAGCACAGUCAGCCAGAACAGAAGGCACAUGAGGAUCACCCAUGUGUACC [EX4 B.7] (Eterna round: R97, puzzle: Exclusion 4) |  | 154 | 22.3 | 
CGCCUGUUAGGAUAUUAGUAGUAGUCAGAAUAGACUAUUACUGAGAAGGGACAUGAGGAUCACCCAUGUUGGCG [Eli x4 4.12] (Eterna round: R97, puzzle: Exclusion 4) |  | 22.2 | 18.8 | 
